These results are taken from publication doi:10.1101/2023.03.13.532385.

The target of assay [1] is human alpha-synuclein wild-type (human) (UniProt P37840). The assay is described as follows: co-sedimentation.
Assay [2] addresses composite αS/N-protein fibrils (fibril strain s1, from plateau p1) (human | SARS-CoV-2) (UniProt P37840). The assay is described as follows: co-sedimentation.

For “human alpha-synuclein wild-type (from UniProt P37840 1-140) (natural protein)”, the αS aggregated into fibrils at p2 in assay [1] was determined as 24 µM. In assay [2], the αS aggregated into fibrils at p1 came out at 8 µM.
